Assay results from patent US20230312755A1 (ANGITIA, published 2023).

Tests used:
human Sclerostin [1] = biological target: T1, human Sclerostin (human, UniProt Q9BQB4 24-213); experiment: cell-based or functional assay
T1 sequence: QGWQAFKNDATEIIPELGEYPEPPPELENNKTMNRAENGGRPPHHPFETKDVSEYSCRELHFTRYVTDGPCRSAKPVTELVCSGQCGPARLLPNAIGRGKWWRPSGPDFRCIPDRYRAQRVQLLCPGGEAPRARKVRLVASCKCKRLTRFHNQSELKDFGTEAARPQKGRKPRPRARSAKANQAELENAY

human Sclerostin [2] = biological target: T1, human Sclerostin; experiment: BLI (Gator), antibody on anti-hFc biosensor, Sclerostin as analyte, 1:1 global fit
Experimental: (§1) The binding affinity of humanized anti-Sclerostin antibodies to human and cynomolgus monkey Sclerostin were determined with bio-layer interferometry using a Gator instrument (Probe Life). Antibodies were immobilized on an anti-hFc biosensor, using a […]. Serial dilutions of human Sclerostin and cynomolgus monkey Sclerostin from 4 μg/ml by two folds in kinetics buffer (PBS, pH 7.4, 0.05% Tween-20, 0.2% BSA, 10 μM biotin) were used as the analytes. Affinity (KD) and kinetic parameters (Kₒₙ and Koff) were calculated from a global fit (1:1) of the data using the Gator software.

[3] = biological target: T2, cynomolgus monkey Sclerostin (cynomolgus monkey, UniProt Q9BG78 24-213 (Chlorocebus aethiops entry)); experiment: as above
T2 chain: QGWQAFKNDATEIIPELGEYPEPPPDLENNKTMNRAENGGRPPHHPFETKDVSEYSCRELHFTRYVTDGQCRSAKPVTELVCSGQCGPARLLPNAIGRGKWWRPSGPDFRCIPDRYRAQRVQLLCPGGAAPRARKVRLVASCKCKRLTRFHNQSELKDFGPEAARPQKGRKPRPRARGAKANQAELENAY
Experimental: as §1

human DKK1 [4] = biological target: T3, human DKK1 (human, UniProt O94907 32-266); experiment: BLI (Gator), hAb-2 on anti-hFc probe already holding hSclerostin, hDKK1 as second analyte
T3 construct: Analyte in BLI and the protein added in the reporter assay; also called hDKK1; Dickkopf-1
T3 sequence (looked up): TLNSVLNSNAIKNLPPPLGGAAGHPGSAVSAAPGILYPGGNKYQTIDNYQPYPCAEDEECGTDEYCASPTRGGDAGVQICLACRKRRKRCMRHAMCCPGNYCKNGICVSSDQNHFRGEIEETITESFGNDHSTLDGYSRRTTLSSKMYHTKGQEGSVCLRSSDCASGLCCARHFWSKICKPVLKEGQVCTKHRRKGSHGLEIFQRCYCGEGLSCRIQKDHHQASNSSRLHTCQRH
Experimental: The bsAb constructs (5 μg/ml) were captured to the anti-hFc HFC probe, then sequentially adding hSclerostin (2 μg/ml) and hDKK1 (2 μg/ml) in kinetics buffer (PBS, pH 7.4, 0.05% Tween-20, 0.2% BSA).

human Sclerostin [5] = biological target: T1, human Sclerostin; experiment: cell-based or functional assay; remark: listed apart in the source
human DKK1 [6] = biological target: T3, human DKK1; experiment: cell-based or functional assay
human Sclerostin [7] = biological target: T1, human Sclerostin; experiment: BLI (Gator), antibody on anti-hFc biosensor, antigen as analyte, 1:1 global fit
Experimental: (§2) Binding kinetics and affinities of anti-Sclerostin×anti-DKK1 and anti-Sclerostin×anti-RANKL bispecific antibodies were measured with Gator (Probe Life) bio-layer interferometry (BLI). Antibodies were immobilized on an anti-hFc biosensor, using a 5 μg/ml solution. Serial dilutions of sclerostin (from 1 μg/ml), DKK1 (from 2 μg/ml), or RANKL (from 4 μg/ml) by two folds in kinetics buffer (PBS, pH 7.4, 0.05% Tween-20, 0.2% BSA) were used as the analytes. Affinity (KD) and kinetic parameters (Kₒₙ and Koff) were calculated from a global fit (1:1) of the data using the Gator software.

human DKK1 [8] = biological target: T3, human DKK1; experiment: as above
Experimental: as §2

human Sclerostin [9] = biological target: T1, human Sclerostin; experiment: BLI (Gator), antibody on anti-hFc biosensor, antigen as analyte; koff at LOD, KD estimated
Experimental: as §2

human DKK1 [10] = biological target: T3, human DKK1; experiment: as above
Experimental: as §2

B1: hAb-2 (antibody, V domains shown)
VH: EVQLVQSGAEVKKPGASVKVSCKASGYTFTDYEIHWVRQAPGKGLEWMGAIDPETGGTAYNQKFKGRVTMTTDTSTSTAYMELRSLRSDDTAVYYCYSYDYVTYWGQGTTVTVSS
VL: DIQMTQSPSSLSASVGDRVTITCRSSQSLLYSDGRTYLNWYQQKPGKSPKRLIYLVSKLDSGVPDRFSGSGSGTDFTLTISSLQPEDFATYYCWQGTHLPHTFGGGTKVEIK
notes: Humanized 93B1B7; also called humanized anti-Sclerostin antibody hAb-2
EC50, Sclerostin-neutralisation activity in HEK293/TCF/LEF/Wnt1 cells (luciferase reporter) (human Sclerostin [1]): 14.9 nM | Kd (human Sclerostin [2]): 0.24 nM | koff (human Sclerostin [2]): 0.0002 s⁻¹ | kon (human Sclerostin [2]): 780000 M⁻¹ s⁻¹ | Kd [3]: 0.055 nM | koff [3]: 8.06e-05 s⁻¹ | kon [3]: 1.54e+06 M⁻¹ s⁻¹ | binding result (human DKK1 [4]): no binding (tested: 2 µg/ml)

B2: BAP0061 (bispecific antibody, human IgG4 S228P, kappa)
heavy 1: EVQLVQSGAEVKKPGASVKVSCKASGYTFTDYEIHWVRQAPGKGLEWMGAIDPETGGTAYNQKFKGRVTMTTDTSTSTAYMELRSLRSDDTAVYYCYSYDYVTYWGQGTTVTVSSASTKGPSVFPLAPCSRSTSESTAALGCLVKDYFPEPVTVSWNSGALTSGVHTFPAVLQSSGLYSLSSVVTVPSSSLGTKTYTCNVDHKPSNTKVDKRVESKYGPPCPPCPAPEFLGGPSVFLFPPKPKDTLMISRTPEVTCVVVDVSQEDPEVQFNWYVDGVEVHNAKTKPREEQFNSTYRVVSVLTVLHQDWLNGKEYKCKVSNKGLPSSIEKTISKAKGQPREPQVYTLPPSQEEMTKNQVSLSCAVKGFYPSDIAVEWESNGQPENNYKTTPPVLDSDGSFFLVSRLTVDKSRWQEGNVFSCSVMHEALHNRFTQKSLSLSLGK
light 1: DIQMTQSPSSLSASVGDRVTITCRSSQSLLYSDGRTYLNWYQQKPGKSPKRLIYLVSKLDSGVPDRFSGSGSGTDFTLTISSLQPEDFATYYCWQGTHLPHTFGGGTKVEIKRTVAAPSVFIFPPSDEQLKSGTASVVCLLNNFYPREAKVQWKVDNALQSGNSQESVTEQDSKDSTYSLSSTLTLSKADYEKHKVYACEVTHQGLSSPVTKSFNRGEC
heavy 2: not shown
light 2: DIRMTQSPFSLSASVGDRVTITCLASEDIYSDLAWYQQKPAKAPKLFIYNANSLQNGVPSRFSGSGSGTDYTLTISSLQPEDFATYYCQQYNNYPPTFGGGTKVEIKRTVAAPSVFICPPSDEQLKSGTASVVCLLNNFYPREAKVQWKVDNALQSGNSQESVTEQDSKDSTYSLSSTLTLSKADYEKHKVYACEVTHQGLSSPVTKSFNRGES
notes: Asymmetric knob-into-hole full length antibody: first Fab (hAb-2) recognizes Sclerostin, second Fab (11H10) recognizes DKK1
EC50, Sclerostin neutralization activity in HEK293/TCF/LEF/Wnt1 reporter gene assay (human Sclerostin [5]): 63.8 nM | EC50, DKK1 neutralization activity in HEK293/TCF/LEF/Wnt1 reporter gene assay (human DKK1 [6]): 41.4 nM | kon (human Sclerostin [7]): 2.62e+06 M⁻¹ s⁻¹ | kon (human DKK1 [8]): 330000 M⁻¹ s⁻¹ | Kd (human Sclerostin [9]): ~0.01 nM | Kd (human DKK1 [10]): ~0.01 nM

B3: BAP0063 (bispecific antibody, human IgG4 S228P, kappa)
heavy 1: EVQLVQSGAEVKKPGASVKVSCKASGYTFTDYEIHWVRQAPGKGLEWMGAIDPETGGTAYNQKFKGRVTMTTDTSTSTAYMELRSLRSDDTAVYYCYSYDYVTYWGQGTTVTVSSASTKGPSVFPLAPCSRSTSESTAALGCLVKDYFPEPVTVSWNSGALTSGVHTFPAVLQSSGLYSLSSVVTVPSSSLGTKTYTCNVDHKPSNTKVDKRVESKYGPPCPPCPAPEFLGGPSVFLFPPKPKDTLMISRTPEVTCVVVDVSQEDPEVQFNWYVDGVEVHNAKTKPREEQFNSTYRVVSVLTVLHQDWLNGKEYKCKVSNKGLPSSIEKTISKAKGQPREPQVYTLPPSQEEMTKNQVSLSCAVKGFYPSDIAVEWESNGQPENNYKTTPPVLDSDGSFFLVSRLTVDKSRWQEGNVFSCSVMHEALHNRFTQKSLSLSLGK
light 1: DIQMTQSPSSLSASVGDRVTITCRSSQSLLYSDGRTYLNWYQQKPGKSPKRLIYLVSKLDSGVPDRFSGSGSGTDFTLTISSLQPEDFATYYCWQGTHLPHTFGGGTKVEIKRTVAAPSVFIFPPSDEQLKSGTASVVCLLNNFYPREAKVQWKVDNALQSGNSQESVTEQDSKDSTYSLSSTLTLSKADYEKHKVYACEVTHQGLSSPVTKSFNRGEC
heavy 2: not shown
light 2: DIRMTQSPFSLSASVGDRVTITCLASEDIYSDLAWYQQKPAKAPKLFIYNANSLQNGVPSRFSGSGSGTDYTLTISSLQPEDFATYYCQQYNNYPPTFGGGTKVEIKRTVAAPSVFIFPPSDEQLKSGTASVVCLLNNFYPREAKVQWKVDNALQSGNSCESVTEQDSKDSTYSLSSTLTLSKADYEKHKVYACEVTHQGLSSPVTKSFNRGES
notes: as for B2
EC50, Sclerostin neutralization activity in HEK293/TCF/LEF/Wnt1 reporter gene assay (human Sclerostin [5]): 65.4 nM | EC50, DKK1 neutralization activity in HEK293/TCF/LEF/Wnt1 reporter gene assay (human DKK1 [6]): 44.7 nM | kon (human Sclerostin [7]): 2.59e+06 M⁻¹ s⁻¹ | kon (human DKK1 [8]): 129000 M⁻¹ s⁻¹ | Kd (human Sclerostin [9]): ~0.01 nM | Kd (human DKK1 [10]): ~0.01 nM
